Patent publication US6361968 (US Dept. of Health and Human Services, dated 1997)
Like-named read-outs stand apart in the source and are kept apart here.

B8: VBP-C/EBP chimeric protein (other)
chain: ASMTGGQQMGRDPLEEKVFVPDEQKDEKYWTRRKKNNVAAKRSRDARRLKENQTQQKVLELTSDNDRLRKRVEQLSRELDTLRGIFRQLPESSLVKAMGNCA
B13: c-Jun (unmodified) (other, UniProt P05412 241-331, looked up)
chain: PLSPIDMESQERIKAERKRMRNRIAASKCRKRKLERIARLEEKVKTLKAQNSELASTANMLREQVAQLKQKVMNHVNSGCQLMLTQQLQTF
B15: GBF-C/EBP chimeric protein (other)
chain: PVKDERELKRQKRKQSNRESARRSRLRNEAECEQTQQKVLELTSDNDRLRKRVEQLSRELDTLRGIFRQLPESSLVKAMGNCA
B16: C/EBP bZIP domain (GCN4-C/EBP chimeric protein) (other)
chain: SEYQPSLFALNPMGFSPLDGSKSTNENVSASTSTAKPMVGQLIFDKFIKTEEDPGKAKKSVDKNSNEYRVRRERNNIAVRKSRDKAKQRNVETQQKVLELTSDNDRLRKRVEQLSRELDTLRGIFRQLPESSLVKAMGNCA
notes: Made in E. coli; forms a homodimer; also called C/EBP-C/EBP; wild type C/EBP

Legend:
[1] = molecular target: B16; assay: CD thermal melt, equimolar mixture, 150 mM KCl, Kd at 25 C
Method: (§1) Table 1 presents the melting temperature (T_m,° C.), $\Delta G$ and k_d at 25° C. for CD thermal melts of a variety of proteins either as homodimers or an equimolar mixture of two proteins. […] The (L) denotes 'low' salt conditions (50 mM KCl, 25 mM Tris pH 8.0, 0.5 mM EDTA, 1 mM DTT) and the (H) denotes regular salt conditions (12.5 mM potassium phosphate, pH 7.4, 150 mM KCl, 0.25 mM EDTA, and 0.5 mM DTT). The latter conditions were used in Table 2. "0heptad-F" represents the F zipper with the basic region deleted. The RMS error in $\Delta G$ is 0.2 kcal/mol and 0.5 kcal/mol for homo- and heterodimers respectively.
(§2) The two chimeras were mixed with the four different length acidic extensions appended to the F zipper and their stability was determined from CD thermal melts.

[2] = molecular target: B15; assay: as above
Method: as §1, §2

[3] = molecular target: B8; assay: as above
Method: as §1, §2

[4] = molecular target: the molecule itself; assay: CD thermal melt, homodimer, 150 mM KCl, Kd at 25 C
Method: (§3) CD analyses were performed as described in Materials and Methods of D. Krylov et al., 1994, *EMBO J.,* 13:2849–2861. T_m values were calculated as described in D, Krylov et al., 1994, Ibid, converted to K_{d(25)} and $\Delta G(25)$ using a $\Delta C_p$ of –0.96 kcal/mol° C.^-1 calculated from a T_m versus $\Delta H$ plot for all of the proteins as described herein. All thermal melts were reversible.
as §1

[5] = molecular target: the molecule itself; assay: CD thermal melt, homodimer, 150 mM KCl
Method: as §3, §1

[6] = molecular target: B16; assay: thermal melt of the mixture (FIG. 1)
[7] = molecular target: B15; assay: thermal melt of the mixture (FIG. 1)
[8] = molecular target: B8; assay: thermal melt of the mixture (FIG. 1)
[9] = molecular target: B16; assay: CD thermal melt, equimolar mixture, 150 mM KCl
Method: as §1, §2

[10] = molecular target: B15; assay: CD thermal melt, equimolar mixture, 150 mM KCl
Method: as §1, §2

[11] = molecular target: B8; assay: CD thermal melt, equimolar mixture, 150 mM KCl
Method: as §1, §2

[12] = molecular target: T1, CREB (unmodified) (UniProt P16220 254-327); assay: thermal melt of the mixture (FIG. 3)
T1 construct: also called CREB protein
T1 sequence (looked up): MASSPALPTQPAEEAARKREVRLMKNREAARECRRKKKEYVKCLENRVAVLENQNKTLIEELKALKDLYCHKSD

[13] = molecular target: B16; assay: CD thermal melts
[14] = molecular target: B15; assay: CD thermal melts
[15] = molecular target: B8; assay: CD thermal melts
[16] = molecular target: B16; assay: thermal stability as heterodimers with C/EBP
[17] = molecular target: T1, CREB (unmodified); assay: thermal melt, CREB with 4heptadCREB (FIG. 3)
[18] = molecular target: B13; assay: thermal melt of the mixture (FIG. 4)
[19] = molecular target: B13; assay: from thermal melts of FIG. 4, Kd at 37 C
[20] = molecular target: the molecule itself; assay: homodimer, dimerization study of FIG. 9
[21] = molecular target: the molecule itself; assay: from thermal melts of FIG. 4, Kd at 37 C
[22] = molecular target: B16; assay: CD thermal melt, equimolar mixture, 150 mM KCl, Kd at 25 C
Method: as §3, §1

[23] = molecular target: B16; assay: CD thermal melt, equimolar mixture, 150 mM KCl
Method: as §3, §1

[24] = molecular target: the molecule itself; assay: CD thermal melt, homodimer, 150 mM KCl, Kd at 25 C; remark: listed apart in the source
Method: as §3, §1

[25] = molecular target: the molecule itself; assay: CD thermal melt, homodimer, low salt (50 mM KCl), Kd at 25 C
Method: as §3, §1

[26] = molecular target: c-Myc bHLH protein (murine, UniProt P01108 368-454); assay: heterodimer with c-Myc, dimerization study of FIG. 9
c-Myc bHLH protein, sequence (P01108 368-454 limits assumed, form in doubt): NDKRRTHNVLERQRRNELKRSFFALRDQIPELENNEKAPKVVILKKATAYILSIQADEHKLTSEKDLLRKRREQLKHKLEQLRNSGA

B1: 4heptad-F (designed binder)
chain: ASMTGGQQMGRDPGGGLEQRAEELARENEELEKEAEELEQENAELEQEVLELESRNDRLRKEVEQLERELDTLRGIFRQLPESSLVKAMGNCA
notes: also called 4heptad-F zipper protein
Kd [1]: 0.04 nM
Kd [2]: 0.03 nM
Kd [3]: 0.01 nM
Kd [4]: 20000 nM
deltaG at 25 C [5]: -6.3 kcal/mol
melting temperature (given as ellipticity) [6]: 65 °C
melting temperature (given as ellipticity) [7]: 65 °C
melting temperature (given as ellipticity) [8]: 65 °C
Tm [9]: 64.8 °C
deltaG at 25 C [9]: -14.2 kcal/mol
Tm [10]: 65 °C
deltaG at 25 C [10]: -14.5 kcal/mol
Tm [11]: 65.2 °C
deltaG at 25 C [11]: -14.8 kcal/mol

B2: New4hepCREB (CREB with the new 4heptad extension, asparagine changed to leucine) (designed binder)
chain: MDYKDDDDKHMASMTGGQQMGRDPDLEQRAEELARENEELEKEAEELEQELAELENRVAVLENQNKTLIEELKALKDLYCHKSD
notes: also called New4heptadCREB; CMV500-4heptadCREB
Tm [12]: 69.5 °C

B3: 1heptad-F (designed binder)
chain: ASMTGGQQMGRDPGGGLEQENAELEQEVLELESRNDRLRKEVEQLERELDTLRGIFRQLPESSLVKAMGNCA
stabilization against 0heptad-F [13]: 1.7 kcal/mol
stabilization against 0heptad-F [14]: 1.3 kcal/mol
stabilization against 0heptad-F [15]: 0.9 kcal/mol
Kd [1]: 0.1 nM
Kd [2]: 0.2 nM
Kd [3]: 0.3 nM
Kd [4]: 1000 nM
deltaG at 25 C [5]: -8 kcal/mol
Tm [9]: 60.8 °C
deltaG at 25 C [9]: -13.5 kcal/mol
Tm [10]: 62 °C
deltaG at 25 C [10]: -13.2 kcal/mol
Tm [11]: 60.5 °C
deltaG at 25 C [11]: -13.1 kcal/mol

B4: 3heptad-F with the DP-D N-terminal cap (designed binder)
chain: ASMTGGQQMGRDPDLARENEELEKEAEELEQENAELEQEVLELESRNDRLRKEVEQLERELDTLRGIFRQLPESSLVKAMGNCA
notes: Built from the statement that DP-D replaces DP-GGG; also called DP-D cap; DPD cap
fold stability against the DP-GGG cap [16]: 3 fold

B5: 2heptad-F (designed binder)
chain: ASMTGGQQMGRDPGGGLEKEAEELEQENAELEQEVLELESRNDRLRKEVEQLERELDTLRGIFRQLPESSLVKAMGNCA
Kd [1]: 0.07 nM
Kd [2]: 0.1 nM
Kd [3]: 0.09 nM
Kd [4]: 4000 nM
deltaG at 25 C [5]: -7.4 kcal/mol
Tm [9]: 63.6 °C
deltaG at 25 C [9]: -13.9 kcal/mol
Tm [10]: 63.1 °C
deltaG at 25 C [10]: -13.6 kcal/mol
Tm [11]: 62.8 °C
deltaG at 25 C [11]: -13.8 kcal/mol

B6: 4heptadCREB (CREB with the 4heptad acidic extension appended at the amino terminus) (designed binder)
chain: ASMTGGQQMGRDPDLEQRAEELARENEELEKEAEELEQENAELENRVAVLENQNKTLIEELKALKDLYCHKSD
notes: also called 4hep-CREB
Tm [17]: 53 °C

B7: c-Fos (unmodified) (other)
chain: PDKVEQLSPEEEEKRRIRRERNKMAAAKCRNRRRELTDTLQAETDQLEDEKSALQTEIANLLKEKEKLEFILAAHRPACKIP
notes: also called human c-Fos protein
Tm [18]: 50 °C
Kd [19]: 200 nM

B8
Kd [4]: 8 nM
deltaG at 25 C [5]: -11.1 kcal/mol

B9: new4heptadFos (4heptadFos with one asparagine of the acidic region changed to leucine) (designed binder)
chain: ASMTGGQQMGRDPDLEQRAEELARENEELEKEAEELEQELAELEAETDQLEDEKSALQTEIANLLKEKEKLEFILAAHRPACKIP
notes: also called N4heptad-Fos
Tm [18]: 72 °C

B10: 0heptadMax (dimerization domain of Max without an acidic extension) (designed binder)
chain: ASMTGGQQMGRDPDLEELEDSFHSLRDSVPSLQGEKASRAQILDKATEYIQYMRRKNHTHQQDIDDLKRQNALLEQQVRALEKARSSAQLQT
notes: domain: dimerization domain; also called OheptadMax
Kd [20]: 100 nM

B11: 3heptad-F with the DP- N-terminal cap (designed binder)
chain: ASMTGGQQMGRDPLARENEELEKEAEELEQENAELEQEVLELESRNDRLRKEVEQLERELDTLRGIFRQLPESSLVKAMGNCA
notes: Built from the statement that DP- replaces DP-GGG; also called DP- cap
fold stability against the DP-GGG cap [16]: 3 fold

B12: 3heptad-C/EBP (three heptad acidic extension appended onto the C/EBP leucine zipper) (designed binder)
chain: ASMTGGQQMGRDPGGGLARENEELEKEAEELEQENAELEQKVLELTSDNDRLRKRVEQLSRELDTLRGIFRQLPESSLVKAMGNCA
Kd [1]: 0.6 nM
Tm [9]: 61 °C
deltaG at 25 C [9]: -12.6 kcal/mol

B13
Kd [21]: 20000 nM

B14: 0heptad-F (F zipper with the basic region deleted) (designed binder)
chain: ASMTGGQQMGRDPGGGTQQEVLELESRNDRLRKEVEQLERELDTLRGIFRQLPESSLVKAMGNCA
notes: Made in E. coli; the initiator methionine is processed off; also called heterodimerizing zipper; 0heptad-F (H)
Kd [22]: 3 nM
Tm [23]: 55.4 °C
Kd [24]: 2000 nM
Kd [1]: 3 nM
Kd [2]: 2 nM
Kd [3]: 1 nM
Kd [4]: 1000 nM
deltaG at 25 C [5]: -8 kcal/mol
Tm [9]: 55.4 °C
deltaG at 25 C [9]: -11.8 kcal/mol
Tm [10]: 55.7 °C
deltaG at 25 C [10]: -11.9 kcal/mol
Tm [11]: 55.1 °C
deltaG at 25 C [11]: -12.2 kcal/mol

B15
Kd [4]: 20 nM
deltaG at 25 C [5]: -10.6 kcal/mol

B16
Kd [25]: 30 nM
Kd [24]: 10 nM
Kd [4]: 10 nM
deltaG at 25 C [5]: -10.9 kcal/mol

B17: AcidMax (Max with a polyglutamic acid extension) (designed binder)
chain: MASMTGGQQMGRDPDEEEDDEEELEELEDSFHSLRDSVPSLQGEKASRAQILDKATEYIQYMRRKNHTHQQDIDDLKRQNALLEQQVRALEKARSSAQLQT
Kd [26]: 0.002 nM
Kd [20]: 30 nM
